Residue numbers refer to the chain shown, from its start. Names may count otherwise.
B1: AppA Q63E full-length (natural protein, Rhodobacter sphaeroides, UniProt Q53119 1-450, looked up)
chain: MQHDLEADVTMTGSDLVSCCYRSLAAPDLTLRDLLDIVETSQAHNARAQLTGALFYSQGVFFEWLEGRPAAVAEVMTHIQRDRRHSNVEILAEEPIAKRRFAGWHMQLSCSEADMRSLGLAESRQIVTVGRSLVADNTNIFSFDRIAAVRRFLSDVCAARTLAPDTPVEADTFALYALTEAQAGRSGRAKAVARLSDLLSTDPLGRLTEVEELLRAHAPTAADFARLFEACAERLTRALAEDRISRMQVTLAYSALQMALRRIHHLPDPQKSVGAVLVAGVPGHKPILEAALAAEMLRAVGWSTSVVHPESVAALAARLKTSRTSTLVVAPSLLEGTEQEADTLRFVSALRARTDLPGLSILVGGRLAQLPPSKLKDSGADAGFAHLALLPAALARVACPANADCCSMRACRMPASQCCDKRINPEFLLANVMPSVLTRISSRQDRRRSA
B2: AppA Q63L full-length (natural protein, Rhodobacter sphaeroides, UniProt Q53119 1-450, looked up)
chain: B1 chain with E63L

Molecular target: the molecule itself
Assay: SEC

Protein	stoichiometry N
B1	2
B2	2
